Measurements from PMC4499140 (Nucleic Acids Research, 2015).

Key:
[1] = target: Mycobacterium tuberculosis RNA polymerase core (Mycobacterium tuberculosis, UniProt P9WGZ1;P9WGY9;P9WGY7); assay: fluorescence polarisation
[2] = target: Rv1222 G133C (Fe-BABE);E. coli RNAP-σ70 holoenzyme (Mycobacterium tuberculosis …, UniProt L0T905;P0A7Z4;P0A8V2;P0A8T7;P0A800;P00579 1-154;1-329;1-1342;1-1407;2-91;1-613, C70A;C73A;C109G;G133C|); assay: Fe-BABE footprinting

B1: Rv1222ΔC, TMR labelled (domain or fragment)
chain: MADPGSVGHVFRRAFSWLPAQFASQSDAPVGAPRQFRSTEHLSIEAIAAFVDGELRMNAHLRAAHHLSLCAQCAAEVDDQSRARAALRDSHPIRIPSTLLGLLSEIPRCPPEGPSKGSSGGSSQGPPDGAAAGFGDRFADGDGG
modifications: TMR label
Kd [1]: 72 ± 26 nM

B2: lacCONS15 promoter DNA (dsDNA)
DNA 1: CACCCCAGGCTTGACACTTTATGCTTCGGCTCGTATAATGTGTGGAATTGTGAGGAGAGGCGGATAACAATTTCACACAGG
DNA 2: CCTGTGTGAAATTGTTATCCGCCTCTCCTCACAATTCCACACATTATACGAGCCGAAGCATAAAGTGTCAAGCCTGGGGTG
binding result [2]: binds
